{"source": "the supplement of paper PMC9112550", "about": "“Optimization of the antimicrobial peptide Bac7 by deep mutational scanning” (BMC Biology, 2022);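 note: peptides expressed intracellularly from a pBAD plasmid library in pooled LB shake-flask culture, induced with 0.3% L-arabinose, DNA abundance read by NGS, three biological replicates, DESeq2 with apeglm shrinkage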", "test_system": "Escherichia coli TOP10", "experiment": "shrunken log2 fold change of peptide-encoding DNA abundance (4.5 h post-induction vs induction); higher = less antimicrobial activity (less host growth inhibition)", "settings": "time post-induction: 4.5 h; library: site-saturation at positions 5, 18, 19, 20", "data": [{"sequence": "RRIRRRPPRLPRPRPRPWKVPRP", "values": [{"measurement": "shrunken log2 fold change", "result": 0.00548}]}, {"sequence": "RRIRVRPPRLPRPRPRPNGQPRP", "values": [{"measurement": "shrunken log2 fold change", "result": 0.0697}]}, {"sequence": "RRIRCRPPRLPRPRPRPAPMPRP", "values": [{"measurement": "shrunken log2 fold change", "result": 0.308}]}, {"sequence": "RRIRKRPPRLPRPRPRPIKYPRP", "values": [{"measurement": "shrunken log2 fold change", "result": 0.0425}]}, {"sequence": "RRIRKRPPRLPRPRPRPHKGPRP", "values": [{"measurement": "shrunken log2 fold change", "result": -0.0331}]}, {"sequence": "RRIRLRPPRLPRPRPRPFPDPRP", "values": [{"measurement": "shrunken log2 fold change", "result": -0.0465}]}, {"sequence": "RRIRIRPPRLPRPRPRPVYGPRP", "values": [{"measurement": "shrunken log2 fold change", "result": -0.351}]}, {"sequence": "RRIRWRPPRLPRPRPRPTVMPRP", "values": [{"measurement": "shrunken log2 fold change", "result": -0.374}]}, {"sequence": "RRIRRRPPRLPRPRPRPMYFPRP", "values": [{"measurement": "shrunken log2 fold change", "result": -0.21}]}, {"sequence": "RRIRSRPPRLPRPRPRPFLSPRP", "values": [{"measurement": "shrunken log2 fold change", "result": -0.063}]}, {"sequence": "RRIRKRPPRLPRPRPRPLINPRP", "values": [{"measurement": "shrunken log2 fold change", "result": -0.149}]}, {"sequence": "RRIRQRPPRLPRPRPRPWWNPRP", "values": [{"measurement": "shrunken log2 fold change", "result": -0.123}]}, {"sequence": "RRIRMRPPRLPRPRPRPQYRPRP", "values": [{"measurement": "shrunken log2 fold change", "result": -0.0939}]}, {"sequence": "RRIRRRPPRLPRPRPRPWRLPRP", "values": [{"measurement": "shrunken log2 fold change", "result": 0.289}]}, {"sequence": "RRIRWRPPRLPRPRPRPRKSPRP", "values": [{"measurement": "shrunken log2 fold change", "result": 0.264}]}, {"sequence": "RRIRMRPPRLPRPRPRPRVVPRP", "values": [{"measurement": "shrunken log2 fold change", "result": 0.246}]}, {"sequence": "RRIRDRPPRLPRPRPRPNADPRP", "values": [{"measurement": "shrunken log2 fold change", "result": 0.018}]}, {"sequence": "RRIRLRPPRLPRPRPRPLCFPRP", "values": [{"measurement": "shrunken log2 fold change", "result": -0.233}]}, {"sequence": "RRIRGRPPRLPRPRPRPRAGPRP", "values": [{"measurement": "shrunken log2 fold change", "result": 1.36}]}, {"sequence": "RRIRGRPPRLPRPRPRPDPHPRP", "values": [{"measurement": "shrunken log2 fold change", "result": 0.507}]}, {"sequence": "RRIRLRPPRLPRPRPRPWFAPRP", "values": [{"measurement": "shrunken log2 fold change", "result": -0.112}]}, {"sequence": "RRIRQRPPRLPRPRPRPKHFPRP", "values": [{"measurement": "shrunken log2 fold change", "result": -0.0231}]}, {"sequence": "RRIRWRPPRLPRPRPRPKQGPRP", "values": [{"measurement": "shrunken log2 fold change", "result": 0.125}]}, {"sequence": "RRIRCRPPRLPRPRPRPTARPRP", "values": [{"measurement": "shrunken log2 fold change", "result": 0.105}]}, {"sequence": "RRIRERPPRLPRPRPRPYGGPRP", "values": [{"measurement": "shrunken log2 fold change", "result": -0.286}]}, {"sequence": "RRIRERPPRLPRPRPRPWEKPRP", "values": [{"measurement": "shrunken log2 fold change", "result": -0.00277}]}, {"sequence": "RRIRQRPPRLPRPRPRPICSPRP", "values": [{"measurement": "shrunken log2 fold change", "result": -0.0668}]}, {"sequence": "RRIRARPPRLPRPRPRPRGAPRP", "values": [{"measurement": "shrunken log2 fold change", "result": 0.961}]}, {"sequence": "RRIRQRPPRLPRPRPRPWACPRP", "values": [{"measurement": "shrunken log2 fold change", "result": -0.0783}]}, {"sequence": "RRIRGRPPRLPRPRPRPNTGPRP", "values": [{"measurement": "shrunken log2 fold change", "result": 0.0864}]}, {"sequence": "RRIRDRPPRLPRPRPRPVMGPRP", "values": [{"measurement": "shrunken log2 fold change", "result": 0.0247}]}, {"sequence": "RRIRVRPPRLPRPRPRPTWYPRP", "values": [{"measurement": "shrunken log2 fold change", "result": -0.0971}]}, {"sequence": "RRIRLRPPRLPRPRPRPFCCPRP", "values": [{"measurement": "shrunken log2 fold change", "result": -0.255}]}, {"sequence": "RRIRSRPPRLPRPRPRPGAWPRP", "values": [{"measurement": "shrunken log2 fold change", "result": 0.342}]}, {"sequence": "RRIRRRPPRLPRPRPRPWQMPRP", "values": [{"measurement": "shrunken log2 fold change", "result": 0.0303}]}, {"sequence": "RRIRVRPPRLPRPRPRPCIVPRP", "values": [{"measurement": "shrunken log2 fold change", "result": -0.0169}]}, {"sequence": "RRIRWRPPRLPRPRPRPDHDPRP", "values": [{"measurement": "shrunken log2 fold change", "result": 0.0812}]}, {"sequence": "RRIRIRPPRLPRPRPRPSGWPRP", "values": [{"measurement": "shrunken log2 fold change", "result": 0.037}]}, {"sequence": "RRIRWRPPRLPRPRPRPQHQPRP", "values": [{"measurement": "shrunken log2 fold change", "result": -0.142}]}, {"sequence": "RRIRYRPPRLPRPRPRPMYYPRP", "values": [{"measurement": "shrunken log2 fold change", "result": -0.269}]}, {"sequence": "RRIRWRPPRLPRPRPRPEECPRP", "values": [{"measurement": "shrunken log2 fold change", "result": 0.158}]}, {"sequence": "RRIRPRPPRLPRPRPRPARWPRP", "values": [{"measurement": "shrunken log2 fold change", "result": 0.44}]}, {"sequence": "RRIRARPPRLPRPRPRPYHLPRP", "values": [{"measurement": "shrunken log2 fold change", "result": -0.0107}]}, {"sequence": "RRIRKRPPRLPRPRPRPQMKPRP", "values": [{"measurement": "shrunken log2 fold change", "result": -0.0666}]}, {"sequence": "RRIRWRPPRLPRPRPRPDKFPRP", "values": [{"measurement": "shrunken log2 fold change", "result": -0.427}]}, {"sequence": "RRIRWRPPRLPRPRPRPGFKPRP", "values": [{"measurement": "shrunken log2 fold change", "result": -0.143}]}, {"sequence": "RRIRRRPPRLPRPRPRPMLHPRP", "values": [{"measurement": "shrunken log2 fold change", "result": 0.385}]}, {"sequence": "RRIRYRPPRLPRPRPRPCQNPRP", "values": [{"measurement": "shrunken log2 fold change", "result": 0.0275}]}, {"sequence": "RRIRMRPPRLPRPRPRPQGVPRP", "values": [{"measurement": "shrunken log2 fold change", "result": -0.0179}]}, {"sequence": "RRIRHRPPRLPRPRPRPGRPPRP", "values": [{"measurement": "shrunken log2 fold change", "result": 0.616}]}]}
